Numbering of substitutions follows the chain as printed. Names and notes keep the numbering of the source. Values joined by “and” are separate entries in the source; they are usually repeats but may differ in a detail not shown here. Equal values may be shown once.
B1: G182A: protease variant of SEQ ID NO 3 (protein, listed as Bacillus sp.)
chain: AVPSTQTPWGIKSIYNDQSITKTTGGSGIKVAVLDTGVYTSHLDLAGSAEQCKDFTQSNPLVDGSCTDRQGHGTHVAGTVLAHGGSNGQGVYGVAPQAKLWAYKVLGDNGSGYSDDIAAAIRHVADEASRTGSKVVINMSLGSSAKDSLIASAVDYAYGKGVLIVAAAGNSGSGSNTIGFPAGLVNAVAVAALENVQQNGTYRVADFSSRGNPATAGDYIIQERDIEVSAPGASVESTWYTGGYNTISGTSMATPHVAGLAAKIWSANTSLSHSQLRTELQNRAKVYDIKGGIGAGTGDDYASGFGYPRVK
B2: L184Y: protease variant of SEQ ID NO 3 (protein, listed as Bacillus sp.)
chain: B1 chain with A182G, L184Y
B3: L184F: protease variant of SEQ ID NO 3 (protein, listed as Bacillus sp.)
chain: B1 chain with A182G, L184F
B4: Q70A + S173P + S175P + F180Y: protease variant of SEQ ID NO 3 (protein, listed as Bacillus sp.)
chain: B1 chain with Q70A, S173P, S175P, F180Y, A182G
B5: S114A + S173P + S175P + F180Y: protease variant of SEQ ID NO 3 (protein, listed as Bacillus sp.)
chain: B1 chain with S114A, S173P, S175P, F180Y, A182G
B6: K146R + S173P + S175P + F180Y: protease variant of SEQ ID NO 3 (protein, listed as Bacillus sp.)
chain: B1 chain with K146R, S173P, S175P, F180Y, A182G
B7: S111I + S173P + S175P + F180Y: protease variant of SEQ ID NO 3 (protein, listed as Bacillus sp.)
chain: B1 chain with S111I, S173P, S175P, F180Y, A182G
B8: S114F + S173P + S175P + F180Y: protease variant of SEQ ID NO 3 (protein, listed as Bacillus sp.)
chain: B1 chain with S114F, S173P, S175P, F180Y, A182G
B9: S173P + S175P + I178P + F180Y: protease variant of SEQ ID NO 3 (protein, listed as Bacillus sp.)
chain: B1 chain with S173P, S175P, I178P, F180Y, A182G
B10: S173P + S175P + F180Y + G182A: protease variant of SEQ ID NO 3 (protein, listed as Bacillus sp.)
chain: B1 chain with S173P, S175P, F180Y
B11: K146A + S173P + S175P + F180Y: protease variant of SEQ ID NO 3 (protein, listed as Bacillus sp.)
chain: B1 chain with K146A, S173P, S175P, F180Y, A182G
B12: S173P + S175P + F180Y + L184D: protease variant of SEQ ID NO 3 (protein, listed as Bacillus sp.)
chain: B1 chain with S173P, S175P, F180Y, A182G, L184D
B13: K146W + S173P + S175P + F180Y: protease variant of SEQ ID NO 3 (protein, listed as Bacillus sp.)
chain: B1 chain with K146W, S173P, S175P, F180Y, A182G
B14: K146F + S173P + S175P + F180Y: protease variant of SEQ ID NO 3 (protein, listed as Bacillus sp.)
chain: B1 chain with K146F, S173P, S175P, F180Y, A182G
B15: S173P + S175P + F180Y + G182S: protease variant of SEQ ID NO 3 (protein, listed as Bacillus sp.)
chain: B1 chain with S173P, S175P, F180Y, A182S
B16: K146N + S173P + S175P + F180Y: protease variant of SEQ ID NO 3 (protein, listed as Bacillus sp.)
chain: B1 chain with K146N, S173P, S175P, F180Y, A182G
B17: S173P + S175P + F180Y + L184H: protease variant of SEQ ID NO 3 (protein, listed as Bacillus sp.)
chain: B1 chain with S173P, S175P, F180Y, A182G, L184H
B18: K146S + S173P + S175P + F180Y: protease variant of SEQ ID NO 3 (protein, listed as Bacillus sp.)
chain: B1 chain with K146S, S173P, S175P, F180Y, A182G
B19: S114Q + S173P + S175P + F180Y: protease variant of SEQ ID NO 3 (protein, listed as Bacillus sp.)
chain: B1 chain with S114Q, S173P, S175P, F180Y, A182G
B20: K146T + S173P + S175P + F180Y: protease variant of SEQ ID NO 3 (protein, listed as Bacillus sp.)
chain: B1 chain with K146T, S173P, S175P, F180Y, A182G
B21: S173P + S175P + I178Y + F180Y: protease variant of SEQ ID NO 3 (protein, listed as Bacillus sp.)
chain: B1 chain with S173P, S175P, I178Y, F180Y, A182G
B22: S173P + S175P + F180Y + L184Y: protease variant of SEQ ID NO 3 (protein, listed as Bacillus sp.)
chain: B1 chain with S173P, S175P, F180Y, A182G, L184Y
B23: S173P + S175P + I178F + F180Y: protease variant of SEQ ID NO 3 (protein, listed as Bacillus sp.)
chain: B1 chain with S173P, S175P, I178F, F180Y, A182G
B24: S173P + S175P + F180Y + L184F: protease variant of SEQ ID NO 3 (protein, listed as Bacillus sp.)
chain: B1 chain with S173P, S175P, F180Y, A182G, L184F
B25: S173P + S175P + F180Y + L184W: protease variant of SEQ ID NO 3 (protein, listed as Bacillus sp.)
chain: B1 chain with S173P, S175P, F180Y, A182G, L184W
B26: S144R: protease variant of SEQ ID NO 3 (protein, listed as Bacillus sp.)
chain: B1 chain with S144R, A182G
B27: S111D: protease variant of SEQ ID NO 3 (protein, listed as Bacillus sp.)
chain: B1 chain with S111D, A182G
B28: S111E: protease variant of SEQ ID NO 3 (protein, listed as Bacillus sp.)
chain: B1 chain with S111E, A182G
B29: A145E: protease variant of SEQ ID NO 3 (protein, listed as Bacillus sp.)
chain: B1 chain with A145E, A182G

Assay: Inhibitor binding assay of SEQ ID NO 3 variants, Inhibitor 1, in Model B detergent
Assay type: biochemical
Settings: in Model B relative to SEQ ID NO 3; relative Ki, IF>1.0 = lower Ki
Description: (§1) Where E is the protease, I is the inhibitor and EI is the protease-inhibitor complex. […] The concentration of enzyme-inhibitor in the detergent solution is then given by:
(§2) where Etot is the total protease concentration ([Etot]=[E]+[EI]), Itot is the total inhibitor concentration ([Itot]=[I]+[EI]), and Ki is the equilibrium binding constant for the reaction. The measured slopes V are given by:
(§3) where V0 is the slope without inhibitor added. To calculate apparent binding constant Ki least square fitting of measured slopes at various inhibitor concentrations to this equation is performed with Ki and V0 as variables.
(§4) Purified protease variants are pre-diluted to approximately 0.2 mg/ml in dilution buffer. The experimental conditions are described in Table 5. 40 μl diluted protease is then mixed with 40 μl inhibitor solution Inhibitor 1: (Cbz-Gly-Ala-NHCH(CH2C6H4pOH)C(OH)(SO3Na)—H, wherein Cbz is benzyloxycarbonyl) or 40 μl Inhibitor 2: (4-FPBA) solution in the well of a 96 well microtiter plate (Nunc F 96-MTP). […] After 10 min mixing of protease and inhibitor at room temperature, 30 μl of the mixture is transferred to a microtiter plate (Nunc U96 PP 0.5 ml) with 270 μl Model B detergent (described in Table 1) in the wells resulting in inhibitor 1 concentrations of 0-30 μM and inhibitor 2 concentrations of 0-6000 μM. Protease, inhibitor and detergent is mixed for 1 hour using magnetic bars for 1 hour at room temperature to reach equilibrium. Then 20 μl is transferred to a microtiter plate (Nunc F 96-MTP). 100 μl substrate solution is added and after 5 sec mixing absorbance at 405 nm is measured every 20 sec for 5 min on a SpectraMax Plus reader. Slope from linear regression of initial increase in absorbance at 405 nm is used for calculation of apparent binding constants. Ki values were calculated according to the “Calculation of Ki” method described in “Materials and Methods”
(§5) Having the Ki for each variant, it is possible to calculate the effect of a single mutation, if data are available for at least two variants that differ only by that mutation. In this case, the relative Ki for the mutation (Improvement Factor, or IF) is calculated:
(§6) A lower Ki is desirable, as a satisfactory inhibition can be obtained at a lower inhibitor concentration, so beneficial mutations have an IF>1.0

inhibitor 1 binding constant improvement factors (IF)	Molecule
1.86	B1
4.47	B2
2.27	B3

Same assay, conditions: in Model B relative to SEQ ID NO 3 comprising S173P + S175P + F180Y; relative Ki, IF>1.0 = lower Ki

inhibitor 1 binding constant improvement factors (IF)	Molecule
4.13	B4
3.33	B5
1.31	B6
1.12	B7
1.41	B8
2.22	B9
2.49 and 2.01	B10
3.72	B11
3.28	B12
5.47	B13
5.17	B14
1.69	B15
1.36	B16
2.50	B17
1.13	B18
2.03	B19
15.91	B20
2.15	B21
3.91	B22
2.34 and 1.83	B23
4.28 and 3.02	B24
2.23	B25

Assay: Inhibitor binding assay of SEQ ID NO 3 variants, Inhibitor 2, in Model B detergent
Assay type: biochemical
Settings: in Model B relative to SEQ ID NO 3; relative Ki, IF>1.0 = lower Ki
Description: as §1, §2, §3, §4, §5, §6

inhibitor 2 binding constant improvement factors (IF)	Molecule
2.03	B26
1.53	B27
1.23	B28
1.03	B29
1.39	B3
